From the nanobody polyreactivity screen of Harvey et al. (2022)

experiment: yeast display, Sf9 membrane polyspecificity reagent, FACS + sequencing; frameworks hold sequencing errors
Method in brief: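 Synthetic nanobody libraries on Saccharomyces cerevisiae BJ5465 were galactose-induced for 36–48 hours, stained 1 hour at 4 °C with 10% biotinylated, detergent-solubilized Sf9 membrane reagent and enriched on streptavidin microbeads. FACS then separated cells into low and high (top ~1%) gates by anti-HA (expression) and streptavidin (reagent binding) fluorescence. Genes were colony-PCR amplified, MiSeq 2 × 250 sequenced and CDR-length filtered. A clone's polyreactivity label is that of its gate of origin.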

Question: Which “polyreactivity (PSR sort gate)” value does the source give for “QVQLVESGGGLVQAGGSLRLSCAASGRTFRDNAMGWYRQAPGKDRELVAAIDIDSSTYYADSVEGRFTISRDNAKNTVYLQMNSLKPEDTAVYYCAAESYHDGKGFPDYEYWGQGTQVTVSS” here?
Answer: low polyreactivity

Question: For “QVQLVESGGGLVQAGGSLRLSCAASGSTFGHYAMGRYRQAPGKESELVSAISTSGGRTYYADSVKGRFTISRDNAKNTVYLQMNSLKPEDTAVYYCATRRYGVDKFDYWGQGTQVTVSS”, which “polyreactivity (PSR sort gate)” value is on record?
Answer: high polyreactivity

Question: Which “polyreactivity (PSR sort gate)” value does the source give for “QVQLVESGGGLVQAGGSLRLSCAASGFTFGYYAMGWYRQAPGKERELVAAITWSGGRTYYADSVKGRFTISRDNAKNTVYLQMNSLKPEDTAVYYCAVETLWQGSEYWGQGTQVTVSS” here?
Answer: low polyreactivity

Question: With “QVQLVESGGGLVQAGGSLRLSCAASGIILTPNAMGWYRQAPGTERELVAAIDWRDGITYYADSVKGRFTISRDNAKNTVYLQMNSLKPEDTAVYYCAATFSRGYDYWGQGTQVTVSS” as the sequence, how does the “polyreactivity (PSR sort gate)” value read?
Answer: high polyreactivity

Question: Which “polyreactivity (PSR sort gate)” value does the source give for “QVQMQESRGGLVQAGGSLRLSCAASGTITTLPAMGWNRQAPGKEREFVAGIDTGAITNYADSVKGRFTISRDNAKNTVYLQKNSLKPEVTAVYYCAVFPAAYDYYERYYTYWGQGTQVTVMS” here?
Answer: low polyreactivity

Question: Which “polyreactivity (PSR sort gate)” value does the source give for “QVQLVESGGGLVHAGGSLRLSCAAAGSTFYYYAMGWYRQAPGKERELVARISDGDSTNYADSVKGRFTISRDNAKNTVYLQMNSLKPEDTAVYYCAAQHWYLGYGYWGQGTQVTVSS” here?
Answer: low polyreactivity

Question: With “QVQLVESGGGLVQAGGSLRLSCAASGRTFPRNGMGWYRQAPGKERELVAAISWSGGRTYYADSVKGRFTISRDNAKYTVYLQMNSLKPEDTAVYYCNALYFRKGGYWGHGTQVTVSS” as the sequence, how does the “polyreactivity (PSR sort gate)” value read?
Answer: high polyreactivity

Question: With “QVQLVESGGGLVQAGGSLRLSCAASVIIFQVYAMGWYRQAAGKERELVAAITRRGASTYYADSVKGRFTISRDNPKNTDYLQMNSLKPEETAVYYFNARAYYRLYKSKLGYWGQGTQVTVSS” as the sequence, how does the “polyreactivity (PSR sort gate)” value read?
Answer: high polyreactivity

Question: For “QVQLVESGGGLVHAGGSLRLSCAASGSTFIYNAMGWDRQAPGKERELVAAITWNGGSTYYADSVKGRFTLSRDIAKNTVYLQMISLNPEDTAVYYCAVDKGSQPHYDYWGQVTQVTVSS”, which “polyreactivity (PSR sort gate)” value is on record?
Answer: low polyreactivity

Question: Which “polyreactivity (PSR sort gate)” value does the source give for “QVQLVESGGGLVQAGGSLRLSCAASGSTFYLYTMGWYRQAPGKERELVAAINRSGGRTYYADSVKGRFTISRDNAKNTVYLQMNSLKPEDTAVYYCAADLASYAYRYDYWGQGTQVTVSS” here?
Answer: high polyreactivity

Question: With “QVQLVESGGGLVQAGGSLRLSSAASGITFITYAMVWYRQAPGKERELVAAISSSGGSTYYADSVKGRFTFSRDNAKNTVYLKMNSLKPEDTAVYYCAAEYVWYFGWKYGYWGQGTQVTVSS” as the sequence, how does the “polyreactivity (PSR sort gate)” value read?
Answer: high polyreactivity

Question: For “QVQLVESGGGLVQAGGSLRLSCAASGRTFYWNAMGWYRQAPGKERELVAAISWRGGSTYYADSVKGRFTISRDNAKNTVYLQMNSLKPEDTAVYYCAAYHSREYDYWGQGTQVTVSS”, which “polyreactivity (PSR sort gate)” value is on record?
Answer: high polyreactivity

Question: With “QVQLVESGGGLVQAGGRLRLSCAASGFTYRGNAMGWYRHAPGKERELVAAITSSDDSTYYADSVKGRFTISRDNAKITVYLQMNSLKPVDTAVYYCAAVANGYWTYEYWGQGTLVTVSS” as the sequence, how does the “polyreactivity (PSR sort gate)” value read?
Answer: low polyreactivity

Question: For “QVQLVESGGGLVQAGGSLRLSCAASGGTFGAYAMGWYRPAPGKERELVAAISGSGARTYYADSVKGRFTISRDNAKNTVYLQMNSLKPEDTAVYYCAARSTGTRVGEYDYWGQGTQVTVSS”, which “polyreactivity (PSR sort gate)” value is on record?
Answer: high polyreactivity

Question: For “QVQLVESGGGLVQAGGSLRLSCAASGSTFVVNAMGWYRQAPGKERELVAAITQSGGSTFYADSVKGRFTISRDNAKNTVYLQMNSLKPEDTAVYYWGLGTQVTVSS”, which “polyreactivity (PSR sort gate)” value is on record?
Answer: low polyreactivity

Question: Which “polyreactivity (PSR sort gate)” value does the source give for “QVPLVESGGGLVQAGGSLRLMCAASGRIFALYAMGWYRQAPGKERELVAAISWSAGRTYYADSVKGRFTISRDNAKNTVYLQMNSLKPEDTAVYYCAADTGRQYDYWGQGTQVTVSS” here?
Answer: high polyreactivity

Question: For “QVQLVESGGGLVQAGGSLSLSCAASGFTFSWNAMGWYSQAPGKERELVATITRSGSTYYADSVKGRFTISRDNSKNTVYLQMNSLKPEDTAVYYCAVVSWYRYSRYVNDYWGQGTQVTVSS”, which “polyreactivity (PSR sort gate)” value is on record?
Answer: high polyreactivity

Question: With “QVQLVESGGGLVQAGGSLRLSCAASGSTFRGYAMGWYRKATGKERELVATNSGSDGTTYYADSVKGRFTISRENAKNTVYLQMNSLKPEDTAVYYCAAGETFEMYYWGQGTQVTVSS” as the sequence, how does the “polyreactivity (PSR sort gate)” value read?
Answer: low polyreactivity

Question: Which “polyreactivity (PSR sort gate)” value does the source give for “QVQRVESGGRLVQAGGSLRLSCAACGSTFPGNAMGWYRQAPGKERELVAAISSSGGSTDYADSVKGRFTCSRDNAKNTVYLQLNRLKPEDTAVYSCATKYRFCTYRDIAYPYDYWGQGPQVTVSS” here?
Answer: low polyreactivity

Question: Which “polyreactivity (PSR sort gate)” value does the source give for “QVQLVESGGGLVQAGGSLRLSCAASGSTIPSNAMGWYRQAPGKERELVASITYTDGTTRYADSVKGRFTISRDNAKNTVYLQMNSLKPEDTAVYYCNAVYYREGMDYWGQGTQVTVSS” here?
Answer: low polyreactivity

Question: For “QVQLVESGGGLVQSGGSLRLSCAASGSTFQSNAMGWYRQAPGKERELVATITQSGATTYYADSVKGRFTISRDNAKNTVYLQMNSLKPEDSAVYYCNVDTYQKRWFWLDLDGGYWGQGTQVTVSS”, which “polyreactivity (PSR sort gate)” value is on record?
Answer: low polyreactivity

Question: Which “polyreactivity (PSR sort gate)” value does the source give for “QVQLVESGGGLVQAGGSLRLSCAASGSIFGLYAMGWYRQAPGKERELVAAITDSTGSTSYADSVKGRFTISRDNAKNTVYLQMTSLKPEDTAVYYCAAGQGRWRHGFDYWGQGTQVTVSS” here?
Answer: low polyreactivity

Question: Which “polyreactivity (PSR sort gate)” value does the source give for “QVQLVESVGGLVQAGGSLRLSCAASGFTFYGYAMGWYRQAPGKERELVAAITSGGITNYADSVKGRFTISRDNAKNTVYLQMNSLKPEDTAVYYCNVKRRVSGYYGYKYYYWGQGTQVTVSS” here?
Answer: high polyreactivity

Question: With “QVQLVESGGGLVQAGGSLRLSCAPSGITFWVYVMGWYRQAPGKEREFVADISSGAGTTYYADSVKGRFTISRDNAKNTVYLQMNSLKPEDTAVYYCAARRWWPQWYDYWGQGTQVTVSS” as the sequence, how does the “polyreactivity (PSR sort gate)” value read?
Answer: high polyreactivity

Question: For “QDQLVESGGGLVQAGGSLRLSCAASGSIFVQYAMGWYRQAPGKERELVATISSSGGSTYYADSVKGRFTISRDNAKNTVYLQMNCLKPEDTAVYYCAADWTLDPSYGYYADDYWGQGTQVTVSS”, which “polyreactivity (PSR sort gate)” value is on record?
Answer: low polyreactivity

Question: With “QVQLVESGGGLVQAGGSLRLSCAASGSTFLGYDMGWYRHAPGKERELVATISKSGGSTHYADSVKGRFTISRDNAKNTVYLQMNSLKPEDTAVYYCAADYYQRYYKKSGEYDYWGQGTQVTVSS” as the sequence, how does the “polyreactivity (PSR sort gate)” value read?
Answer: low polyreactivity

Question: Which “polyreactivity (PSR sort gate)” value does the source give for “QVQLVESGGGLVQAGGSLRLSCAASGLTFAWYAMGWYRQAPGKARELVAVISNGGSTNDADSVKRRFTISRDNAKNTVYLQMNSLKPDDTAVYYCAAGWVWSGNDYYYWGQGTQVTVSS” here?
Answer: low polyreactivity

Question: With “QVQLVESGGGLVQAGGSLRLSCAASGSTFRKYAMGWYRHAPGKEREFVAAITWSTGTTYYADSVKGRFTISRDHAKNTVYLQMNSLKPEDTAVYDCAADSQPPHELYESIEHESWGQGTQVTVSS” as the sequence, how does the “polyreactivity (PSR sort gate)” value read?
Answer: low polyreactivity

Question: For “QVQLVESVGGLVQAGGSLRLSCAASGSIFGDNAMGWYRQAPGKERELVAAITWRGGSTYYADSVKGRFTISRDNAKNTVYLQMNSLKPEDTAVYYCATDSRSHRDYWGQGTQVTVSS”, which “polyreactivity (PSR sort gate)” value is on record?
Answer: low polyreactivity

Question: For “QFQLVESGRGLVQAGGSLRLSCAASVRIFRGYAKGWYRQAPGKEREFVAANTKNGGSTYYADSVKGRFTISRDYAKNTVYLQMNSLKPEDTAVYYCAVRAWEPYTGKSDYWGQGTQVTVSS”, which “polyreactivity (PSR sort gate)” value is on record?
Answer: low polyreactivity

Question: With “QVQLVESGGGLVQAGGSLRLSCAASGFIFRFNALGWYRQAPGKERELVAAISGSGGITYYADSVKGRFTISRDNAKNTVYLQMNSLKPEDTAVYYCAAGTGKRSVRFDYWGQGTQVTVSS” as the sequence, how does the “polyreactivity (PSR sort gate)” value read?
Answer: high polyreactivity

Question: For “QVQLVESGGCLVQAGGSLRLTCAASGRIFRGNVMGWYRQAPGKERELVAAISGRGGNTYYADSVKGRFTISRDNAKNTVYLQMNSLKPEDTAVYYCAATRKDDYQYGYWGQGTQVTVSS”, which “polyreactivity (PSR sort gate)” value is on record?
Answer: high polyreactivity

Question: For “QVQLVESGGGLVQAGGSLRLSCAASGRTFVLYAMGWYRQAPGKERELVAAIRQSDVSTYYADSVKGRFTISRDNAKNTVFLQMNSLKPEDTAVFYCAARNRYRRRYYYWGQGTQVTVSS”, which “polyreactivity (PSR sort gate)” value is on record?
Answer: high polyreactivity

Question: Which “polyreactivity (PSR sort gate)” value does the source give for “QVQLVESGGGLVQAGGSLRLSCAASGFTFESYAMGWYRQAPGKERELVAAISWNGGSTYYADSVKGRFTISRDNAKNTVYLQMNSLKPADTAVYYCAARGRAPRFRRIGYDYWGQGTQVTVSS” here?
Answer: high polyreactivity

Question: Which “polyreactivity (PSR sort gate)” value does the source give for “QVQLVESGGGLVQAGGILRLSCAASGRIFHRYTMGWYRQAPGKEREFVAAITTRAGSTYYADSVKGRFTISRDNAKYTVYLQMNSLKPEDTAVYYCNIRRHSLFGGTTTRYDYWGQGTQVTVSS” here?
Answer: high polyreactivity

Question: With “QVRLQESGGGLVQAGGSLRLSCAASGSISLTYYMDWSRQAPCTVREFVATITAGATTNYADSVKGRFTISRDNAKNTVYPQMNSLKPEDTEVYYSAVRAEHQVTLIYLGQGTQVTVSS” as the sequence, how does the “polyreactivity (PSR sort gate)” value read?
Answer: low polyreactivity

Question: For “QVQLVESGGGLVQAGGSLRLSCAASGSTLTEYAMGWYRQAPGKEREFVAAISRSAGSTYYADSVKGRFTISRDNAKNTVYLQMNSLKPDDTAVYYCAVAVRVGFDYFSGQADIYYYWGQGTQVTVSS”, which “polyreactivity (PSR sort gate)” value is on record?
Answer: low polyreactivity

Question: For “QVQLVESGGGLVQAGGSLRLSCAATGLIFSRNAMGWYRQAPGKERELVAAISTGGSTYYADSVKGRFTISRDNAKITVYLQMNSLKPEDTAVYYCAAAPGYIYEYWGQGTQVTVSS”, which “polyreactivity (PSR sort gate)” value is on record?
Answer: low polyreactivity

Question: Which “polyreactivity (PSR sort gate)” value does the source give for “HVQLVESGGGLVQAGGSLRLSCAASGSTFILNTMGWYIQAPGKERKLVAAITRRGSSTYYADSVKGRFTISRDNAKNTGYLQMNSLKPEDTAVYFCAAFSYNLGMDYWGQGTKVTVSS” here?
Answer: high polyreactivity

Question: With “QVQLVESGGGLVQAGGSLRLSCAASGNIFGIYAMGWYRQAPGKERELVAAIRGRGASTYYADSVKGRFTISRDNAKNTVYLQMNSLKPEDTAVYYCAVDVPLSRYWWRRTYDYWGQGTQVTVSS” as the sequence, how does the “polyreactivity (PSR sort gate)” value read?
Answer: low polyreactivity

Question: For “QVQLVESGGGLVQAGGSLRLSCAASGSIFTLYAMGWYRQAPGKERELVATINWSGGSTSYADSVKGRFTISRDNAKNTVYLQMNSLKPEDTAVYYCAADAGSYDALDYSDLLYDYWGQGTQVTVSS”, which “polyreactivity (PSR sort gate)” value is on record?
Answer: low polyreactivity

Question: With “QVQLVESGGGLVQAGGSLRLSCAASGSIFHANAMGWYRQAPGKERELVAVISQGGGSTYYADSVKGRFTISRDNAKNTVYLQMNSLKPEDTAVYYCAAYYYYSAYGDDYWGQGTQVTVSS” as the sequence, how does the “polyreactivity (PSR sort gate)” value read?
Answer: high polyreactivity

Question: With “QDQLEESGGGLSQAGGSLRLSCAASGINFPSYTMGWSRQATGKERELVAAIDSGGSTYYADSVKGRFTISRDNAKNSVYLQMNSLIPEDTAVYYCAAEPDTYWYTYDYWGQGTQVSVSS” as the sequence, how does the “polyreactivity (PSR sort gate)” value read?
Answer: low polyreactivity
